# Laboratory results as given in paper PMC10884834, “SPR spectroscopic analysis of myosin binding to wild type and mutant UNC45B” (microPublication Biology, 2024).
# How the values were obtained:
# [1] = molecular target: myosin II, full-length, purified from rabbit skeletal muscle (rabbit, UniProt Q28641 1-1938); experiment: SPR; BIAcore X100; His-tagged UNC45B constructs (0.2 uM) captured on Ni2+-NTA sensor chip; myosin analyte 1 up to 3500 nM at 5 ul/min; HBS-P (10 mM HEPES, 150 mM NaCl, 0.005% Tween20, pH 7.4) plus 50 uM EDTA; 20 C; steady-state signal fitted to a 1:1 one-site saturation model; n=3; conditions: both partners purified
# [2] = molecular target: myosin II, full-length, purified from rabbit skeletal muscle (rabbit, UniProt Q28641 1-1938, Deletion taken as residues 600-630, as the methods print for the mutant; the description gives the loop as N601-D630, so residue 600 is uncertain. Full-length canonical isoform (931 aa) assumed. His-t); experiment: as above; conditions: both partners purified
Kd [1],Kd [2],Binder
330 nM,,"UNC45B (wild type), Homo sapiens (natural protein, human, UniProt Q8IWX7 1-931, looked up, UNC45B, Homo sapiens, codon optimized for E. coli, synthesized (GenScript), in a pET-28 vector; also called wild-type UNC-45B; source: E. coli BL21 DE3, purified (HisPur Ni-NTA resin)) MAEVEAVQLKEEGNRHFQLQDYKAATNSYSQALKLTKDKALLATLYRNRAACGLKTESYVQAASDASRAIDINSSDIKALYRRCQALEHLGKLDQAFKDVQRCATLEPRNQNFQEMLRRLNTSIQEKLRVQFSTDSRVQKMFEILLDENSEADKREKAANNLIVLGREEAGAEKIFQNNGVALLLQLLDTKKPELVLAAVRTLSGMCSGHQARATVILHAVRIDRICSLMAVENEEMSLAVCNLLQAIIDSLSGEDKREHRGKEEALVLDTKKDLKQITSHLLDMLVSKKVSGQGRDQALNLLNKNVPRKDLAIHDNSRTIYVVDNGLRKILKVVGQVPDLPSCLPLTDNTRMLASILINKLYDDLRCDPERDHFRKICEEYITGKFDPQDMDKNLNAIQTVSGILQGPFDLGNQLLGLKGVMEMMVALCGSERETDQLVAVEALIHASTKLSRATFIITNGVSLLKQIYKTTKNEKIKIRTLVGLCKLGSAGGTDYGLRQFAEGSTEKLAKQCRKWLCNMSIDTRTRRWAVEGLAYLTLDADVKDDFVQDVPALQAMFELAKAGTSDKTILYSVATTLVNCTNSYDVKEVIPELVQLAKFSKQHVPEEHPKDKKDFIDMRVKRLLKAGVISALACMVKADSAILTDQTKELLARVFLALCDNPKDRGTIVAQGGGKALIPLALEGTDVGKVKAAHALAKIAAVSNPDIAFPGERVYEVVRPLVRLLDTQRDGLQNYEALLGLTNLSGRSDKLRQKIFKERALPDIENYMFENHDQLRQAATECMCNMVLHKEVQERFLADGNDRLKLVVLLCGEDDDKVQNAAAGALAMLTAAHKKLCLKMTQVTTQWLEILQRLCLHDQLSVQHRGLVIAYNLLAADAELAKKLVESELLEILTVVGKQEPDEKKAEVVQTARECLIKCMDYGFIKPVS"
,2630 nM,"UNC45B loop deletion mutant (residues 600-630), Homo sapiens (natural protein) MAEVEAVQLKEEGNRHFQLQDYKAATNSYSQALKLTKDKALLATLYRNRAACGLKTESYVQAASDASRAIDINSSDIKALYRRCQALEHLGKLDQAFKDVQRCATLEPRNQNFQEMLRRLNTSIQEKLRVQFSTDSRVQKMFEILLDENSEADKREKAANNLIVLGREEAGAEKIFQNNGVALLLQLLDTKKPELVLAAVRTLSGMCSGHQARATVILHAVRIDRICSLMAVENEEMSLAVCNLLQAIIDSLSGEDKREHRGKEEALVLDTKKDLKQITSHLLDMLVSKKVSGQGRDQALNLLNKNVPRKDLAIHDNSRTIYVVDNGLRKILKVVGQVPDLPSCLPLTDNTRMLASILINKLYDDLRCDPERDHFRKICEEYITGKFDPQDMDKNLNAIQTVSGILQGPFDLGNQLLGLKGVMEMMVALCGSERETDQLVAVEALIHASTKLSRATFIITNGVSLLKQIYKTTKNEKIKIRTLVGLCKLGSAGGTDYGLRQFAEGSTEKLAKQCRKWLCNMSIDTRTRRWAVEGLAYLTLDADVKDDFVQDVPALQAMFELAKAGTSDKTILYSVATTLVNCTNSYDVKEVIPELVQLAISALACMVKADSAILTDQTKELLARVFLALCDNPKDRGTIVAQGGGKALIPLALEGTDVGKVKAAHALAKIAAVSNPDIAFPGERVYEVVRPLVRLLDTQRDGLQNYEALLGLTNLSGRSDKLRQKIFKERALPDIENYMFENHDQLRQAATECMCNMVLHKEVQERFLADGNDRLKLVVLLCGEDDDKVQNAAAGALAMLTAAHKKLCLKMTQVTTQWLEILQRLCLHDQLSVQHRGLVIAYNLLAADAELAKKLVESELLEILTVVGKQEPDEKKAEVVQTARECLIKCMDYGFIKPVS"
